Experimental findings from PMC7582951 are described below.

The assay deals with C0-C1-C2 region of the glutamate NMDAR NR1 subunit (mouse) (UniProt P35438). Put plainly: pull-down; competition: 0.2 uM CaM with NR1 C0-C1-C2 covalently attached to NHS-activated Sepharose, 2.5 mM CaCl2, increasing concentrations of σ1R WT or E102Q; bound CaM and σ1R by western blot.
UniProt P35438, sequence (P35438 834-938): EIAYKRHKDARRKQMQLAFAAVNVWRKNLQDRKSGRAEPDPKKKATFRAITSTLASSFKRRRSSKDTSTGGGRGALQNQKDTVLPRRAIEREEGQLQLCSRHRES

Regarding “sigma receptor type 1 (σ1R) E102Q mutant (from UniProt O55242 1-223) (natural protein)”, the concentration that prevented the binding of 200 nM CaM to NR1 was below 0.2 nM. “sigma receptor type 1 (σ1R), wild-type (from UniProt O55242 1-223) (natural protein)” came in with a concentration that abolished the binding of 200 nM CaM to NR1 of 60 nM.
